Biological target: A9 anti-CD40 antibody, deimmunized variant
Experiment: SPR; wildtype against deimmunized variant on the CD40 protein (Supplementary Fig. 3B); format of this experiment not told in what was shown

Chain of human CD40-Fc (P25942 21-193): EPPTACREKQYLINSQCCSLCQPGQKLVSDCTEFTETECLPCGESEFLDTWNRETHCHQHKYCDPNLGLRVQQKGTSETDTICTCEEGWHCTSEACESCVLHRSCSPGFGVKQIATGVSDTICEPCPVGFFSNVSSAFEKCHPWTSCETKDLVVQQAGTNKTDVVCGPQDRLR

Substance “human CD40-Fc (from UniProt P25942 21-193) (Fc fusion)” has a Kd of 1.6 nM.
